Measured values from article PMC4443670, “The C-terminal region of the motor protein MCAK controls its structure and activity through a conformational switch” (eLife, 2015).
Changes are numbered by the printed parent chain. Names may count otherwise. “And” between values parts separate entries of the source, which are not always exact repeats. Equal entries are not always repeated. Where two headings read alike, the source gives them in different places. Each block holds one molecule with its values, some of them ahead of it.

Key:
[1] = target: subtilisin-treated microtubules; test: Microtubule cosedimentation assay, subtilisin-treated microtubules; format: binding; settings: for affinity for subtilisin-treated microtubules (β-tubulin C termini removed): 50 nM full-length protein, subtilisin 10 min
Method: (§1) Full-length MCAK complex was diluted in S buffer (50 mM NaCl, 20 mM Hepes pH 7.0) to 50 nM, in absence of nucleotide to prevent MCAK-dependent microtubule depolymerisation. To assemble an MCAK motor-CT domain complex, 50 nM of the motor domain and 100 nM of the CT domain were used. Microtubule binding assays were performed as described ([Cheeseman et al., 2006]) using equal volumes of taxol-stabilized microtubules in BRB80 and MCAK in S buffer. MCAK was quantified using anti-MCAK antibody against the C terminus of MCAK (709[…]720), generated by GL Biochem (Shangai) Ltd (China) or anti-His antibody to probe for the motor domain alone (GE Healthcare Lifesciences, UK). The data from at least three independent experiments were fitted to a modified Hill equation to determine the apparent Kd.
Tubulin (5 mg/ml) was first polymerized into MTs in the presence of 1 mM GTP and gradual addition of 0.05 µM, 0.5 µM and 2 µM taxol for 1 hr at 37°C. The polymerized MTs were then treated with 100 μg/ml subtilisin and incubated at 37°C for 10 min to cleave β-tubulin tails and 120 min to cleave both α- and β-tubulin tails. Each reaction was then terminated with the addition of 3 mM PMSF. DM1A (Abcam, UK) and c-terminal β-tubulin (Sigma, UK) were used to detect the α- and β-tails, respectively by western blotting. The subtilisin treated microtubules were then pelleted at 28°C in a TLA100 rotor at 80,000 rpm for 10 min and the microtubule pellets were resuspended in warm BRB80 buffer to obtain subtilisin treated microtubules. The cosedimentation assays were then performed as described before.

[2] = Analytical size-exclusion chromatography (oligomeric state / size); format: physicochemical
Method: Protein expression was induced by addition of 0.5 mM IPTG to BL21(DE3) Codon plus cells transformed with respective constructs at OD600 of 0.7–0.8 for 16 hr at 18°C. Cells were lysed by sonication in lysis buffer (50 mM Hepes, pH 7.4, 200 mM NaCl, 1 mM MgCl2, 1 mM PMSF, 1 mg/ml DNaseI, 2 mg/ml lysozyme, 10 mM Imidazole) and clarified at 20,000 rpm for 1 hr at 4°C. His-tagged and GST-tagged proteins were subsequently purified using Ni-NTA–agarose beads and glutathione-sepharose beads, respectively (GE Healthcare Life Sciences, UK)) according to the manufacturer's guidelines. MCAK constructs containing the motor domain were eluted with elution buffer (50 mM Hepes, pH 7.4, 200 mM NaCl, 1 mM MgCl2, 1 mM ATP, and 300 mM imidazole). Cleavage of the GST tag was performed using the GST-3C protease overnight at 4°C. […] Protein concentrations were determined with a combination of Bradford protein assays and densitometry of Coomassie-stained gels relative to a BSA standard. […]

[3] = test system: taxol-stabilized microtubules; test: Microtubule depolymerisation assay; format: biochemical
Method: Microtubule depolymerization assays were performed essentially as described previously ([Hertzer et al., 2006]). MCAK was diluted to 100 nM in S-buffer containing 1 mM DTT and 2 mM Mg-ATP. For depolymerization assays of the motor domain in presence of the CT domain after GST cleavage and removal, 50 nM of motor domain and 100 nM of the CT domain were used. The microtubule depolymerization assay was initiated by the addition of 2 μM taxol-stabilized microtubules to a reaction buffer containing MCAK. Reactions were incubated at room temperature with increasing times and followed by centrifugation to separate microtubules from free tubulin. The data are represented as mean ± SD from three independent experiments.

[4] = Size-exclusion chromatography coupled to multi-angle light scattering (SEC-MALS); format: physicochemical; settings: 100 mM HEPES pH 7.2, 150 mM NaCl
Method: Size-exclusion chromatography with on-line multi-angle light scattering (SEC-MALS) was performed using a GE Superdex 200 10/300 GL column on an ÄKTA FPLC system. MALS measurements were performed using a MiniDAWN in-line detector (Wyatt Technology, Santa Barbara, CA, USA). MCAK motor domain and C terminus were at 2 mg/ml in 100 mM HEPES, pH 7.2, 150 mM NaCl. Protein concentration was monitored using a UV monitor at 280 nm and a refractive index detector was set at 690 nm (Optilab DSP, Wyatt Technology, Santa Barbara, CA, USA). Data were analyzed using Astra software (Wyatt Technology, Santa Barbara, CA, USA) using the refractive index detector and a refractive index increment (dn/dc) value of 0.185 ml/g. Gel phase distribution coefficients (Kav) were determined from the equation Kav = (Ve − Vo)/(Vt − Vo), where Ve, Vo, and Vt represent the elution volume of the protein of interest, the column void volume and the total bed volume of the column, respectively.

[5] = target: taxol-stabilized microtubules; test: Microtubule cosedimentation assay, untreated microtubules; format: binding; settings: for Kd: 50 nM, modified Hill equation, at least three independent experiments, read-out: apparent Kd for microtubules
Method: as §1

[6] = full-length protein, absence of nucleotide, untreated microtubules

B3: MCAK: full-length wild type MCAK, kinesin-13 microtubule depolymerase (protein)
chain: MAMDSSLQARLFPGLAIKIQRSNGLIHSANVRTVNLEKSCVSVEWAEGGATKGKEIDFDDVAAINPELLQLLPLHPKDNLPLQENVTIQKQKRRSVNSKIPAPKESLRSRSTRMSTVSELRITAQENDMEVELPAAANSRKQFSVPPAPTRPSCPAVAEIPLRMVSEEMEEQVHSIRGSSSANPVNSVRRKSCLVKEVEKMKNKREEKKAQNSEMRMKRAQEYDSSFPNWEFARMIKEFRATLECHPLTMTDPIEEHRICVCVRKRPLNKQELAKKEIDVISIPSKCLLLVHEPKLKVDLTKYLENQAFCFDFAFDETASNEVVYRFTARPLVQTIFEGGKATCFAYGQTGSGKTHTMGGDLSGKAQNASKGIYAMASRDVFLLKNQPCYRKLGLEVYVTFFEIYNGKLFDLLNKKAKLRVLEDGKQQVQVVGLQEHLVNSADDVIKMIDMGSACRTSGQTFANSNSSRSHACFQIILRAKGRMHGKFSLVDLAGNERGADTSSADRQTRMEGAEINKSLLALKECIRALGQNKAHTPFRESKLTQVLRDSFIGENSRTCMIATISPGISSCEYTLNTLRYADRVKELSPHSGPSGEQLIQMETEEMEACSNGALIPGNLSKEEEELSSQMSSFNEAMTQIRELEEKAMEELKEIIQQGPDWLELSEMTEQPDYDLETFVNKAESALAQQAKHFSALRDVIKALRLAMQLEEQASRQISSKKRPQ
modifications: left off: His tag, end not stated, state not stated
notes: full-length wild type MCAK, kinesin-13 microtubule depolymerase
affinity for subtilisin-treated microtubules (β-tubulin C termini removed) ([1]; absence of nucleotide): increased the affinity
Kd [5, 6]: ~1500 nM and 1500 nM

B4: MCAKE712C: full-length MCAK with Glu712 mutated to cysteine (protein)
chain: B3 chain with E712C
modifications: left off: His tag, end not stated, state not stated
notes: full-length MCAK with Glu712 mutated to cysteine
gel filtration profile [2]: eluted as one complex, of similar size to MCAK
microtubule binding, absence of DTT (oxidizing) ([5]; full-length protein 50 nM, absence of DTT and nucleotide): the affinity of MCAKE712C for microtubules was reduced and a fraction of MCAKE712C did not bind microtubules, even at saturating microtubule concentrations
microtubule binding, presence of DTT ([5]; full-length protein 50 nM, with DTT, absence of nucleotide): bound to microtubules similarly to wild type full-length MCAK

B5: CTE712C-bound motor: motor domain covalently bound (disulphide) to CTE712C domain (protein)
chain 1: NPVNSVRRKSCLVKEVEKMKNKREEKKAQNSEMRMKRAQEYDSSFPNWEFARMIKEFRATLECHPLTMTDPIEEHRICVCVRKRPLNKQELAKKEIDVISIPSKCLLLVHEPKLKVDLTKYLENQAFCFDFAFDETASNEVVYRFTARPLVQTIFEGGKATCFAYGQTGSGKTHTMGGDLSGKAQNASKGIYAMASRDVFLLKNQPCYRKLGLEVYVTFFEIYNGKLFDLLNKKAKLRVLEDGKQQVQVVGLQEHLVNSADDVIKMIDMGSACRTSGQTFANSNSSRSHACFQIILRAKGRMHGKFSLVDLAGNERGADTSSADRQTRMEGAEINKSLLALKECIRALGQNKAHTPFRESKLTQVLRDSFIGENSRTCMIATISPGISSCEYTLNTLRYAD
chain 2: VIKALRLAMQLECQASRQISSKKRPQ
modifications: disulphide bridge of Cysteine 287 to Cysteine 712 of the CT_(E712C) domain | disulphide bridge of Cysteine 712 to Cysteine 287 of the motor domain; left off: His tag, end not stated, kept | GST, end n
detection of CT domain in microtubule-bound pellet / supernatant ([5]; western blot, 50 nM motor domain, with and without DTT): remained in the supernatant

Continued, in another order:

Kd ([1]; 50 nM motor domain in motor-CT domain complex, subtilisin-treated microtubules (10 or 120 min), absence of nucleotide): 200 nM
Kd ([5]; motor domain alone, absence of nucleotide): 640 nM
B1: motor domain: motor region of MCAK along with the neck linker region (residues 181–583), His-tagged (protein, UniProt Q99661 181-583, looked up, fragment)
chain: SANPVNSVRRKSCLVKEVEKMKNKREEKKAQNSEMRMKRAQEYDSSFPNWEFARMIKEFRATLECHPLTMTDPIEEHRICVCVRKRPLNKQELAKKEIDVISIPSKCLLLVHEPKLKVDLTKYLENQAFCFDFAFDETASNEVVYRFTARPLVQTIFEGGKATCFAYGQTGSGKTHTMGGDLSGKAQNASKGIYAMASRDVFLLKNQPCYRKLGLEVYVTFFEIYNGKLFDLLNKKAKLRVLEDGKQQVQVVGLQEHLVNSADDVIKMIDMGSACRTSGQTFANSNSSRSHACFQIILRAKGRMHGKFSLVDLAGNERGADTSSADRQTRMEGAEINKSLLALKECIRALGQNKAHTPFRESKLTQVLRDSFIGENSRTCMIATISPGISSCEYTLNTLRYAD
modifications: His tag
notes: motor region of MCAK along with the neck linker region (residues 181–583), His-tagged
effect of α-tubulin tail removal on affinity for microtubules lacking β-tubulin tail ([1]; 50 nM motor domain, subtilisin 120 vs 10 min): did not further modify the affinity
apparent size (gel filtration) [2]: ~45 kDa
microtubule depolymerase activity of motor with CT domain, with and without DTT ([3]; 50 nM motor domain, 100 nM CT domain, 2 μM taxol-stabilized microtubules): could depolymerize microtubules
fraction monomeric ([4]; SEC-MALS, absence of CT domain, 2 mg/ml): over 90%
Monodispersity ([4]; SEC-MALS): 1.005
measured molecular weight (MW) ([4]; SEC-MALS, Superdex 200 10/300 GL, 2 mg/ml, unit printed kDa in text, kD in figure): ~45.3 kDa
Stoke Radius ([4]; from SEC calibration curve): 3.11 nm

Kd [5, 6]: ~200 nM and 200 nM
B2: MCAKS715E: full-length MCAK S715E in which the CT domain cannot bind to the motor domains (protein)
chain: B3 chain with S715E
modifications: left off: His tag, end not stated, state not stated
affinity for subtilisin-treated microtubules (β-tubulin C termini removed) ([1]; absence of nucleotide): remained comparably high
microtubule depolymerase activity, full-length ([3]; 100 nM protein, 2 μM microtubules, 1 mM DTT, 2 mM Mg-ATP, room temperature, three experiments): appeared similar to wild type MCAK
